{
  "source": "the Human Domainome abundance scans (Beltran et al. 2025)",
  "parents": {"B1": {"name": "Ras GTPase-activating protein 1, residues 281 to 341; numbered along this chain, P20936 (parent)", "chain": "RRRVRAILPYTKVPDTDEISFLKGDMFIVHNELEDGWMWVTNLRTDEQGLIVEDLVEEVGR"}},
  "note": "± gives the uncertainty stated by the source.",
  "data": [
    {"variants_of": "B1", "assay": "abundance fitness (aPCA) (normalised: wild type 0, dead -1); higher = more abundant; growth selection in yeast, the domain comes from the species named", "settings": "Homo sapiens", "values": [
      {"variant": "RRRVRAILPYTKVPDTDEISFLKRDMFIVHNELEDGWMWVTNLRTDEQGLIVEDLVEEVGR", "note": "[G24R]", "abundance fitness": "-0.672 ± 0.039"},
      {"variant": "RRRVRAILPYTKVPDTDEISFLKVDMFIVHNELEDGWMWVTNLRTDEQGLIVEDLVEEVGR", "note": "[G24V]", "abundance fitness": "-0.751 ± 0.036"},
      {"variant": "RRRVRAILPYTKVPDTDEISFLKEDMFIVHNELEDGWMWVTNLRTDEQGLIVEDLVEEVGR", "note": "[G24E]", "abundance fitness": "-0.371 ± 0.052"},
      {"variant": "RRRVRAILPYTKVPDTDEISFLKSDMFIVHNELEDGWMWVTNLRTDEQGLIVEDLVEEVGR", "note": "[G24S]", "abundance fitness": "-0.362 ± 0.027"},
      {"variant": "RRRVRAILPYTKVPDTDEISFLKFDMFIVHNELEDGWMWVTNLRTDEQGLIVEDLVEEVGR", "note": "[G24F]", "abundance fitness": "-0.584 ± 0.035"},
      {"variant": "RRRVRAILPYTKVPDTDEISFLKPDMFIVHNELEDGWMWVTNLRTDEQGLIVEDLVEEVGR", "note": "[G24P]", "abundance fitness": "-1.04 ± 0.11"},
      {"variant": "RRRVRAILPYTKVPDTDEISFLKDDMFIVHNELEDGWMWVTNLRTDEQGLIVEDLVEEVGR", "note": "[G24D]", "abundance fitness": "-0.07 ± 0.031"},
      {"variant": "RRRVRAILPYTKVPDTDEISFLKTDMFIVHNELEDGWMWVTNLRTDEQGLIVEDLVEEVGR", "note": "[G24T]", "abundance fitness": "-0.881 ± 0.066"},
      {"variant": "RRRVRAILPYTKVPDTDEISFLKIDMFIVHNELEDGWMWVTNLRTDEQGLIVEDLVEEVGR", "note": "[G24I]", "abundance fitness": "-0.933 ± 0.061"},
      {"variant": "RRRVRAILPYTKVPDTDEISFLKNDMFIVHNELEDGWMWVTNLRTDEQGLIVEDLVEEVGR", "note": "[G24N]", "abundance fitness": "-0.133 ± 0.033"},
      {"variant": "RRRVRAILPYTKVPDTDEISFLKADMFIVHNELEDGWMWVTNLRTDEQGLIVEDLVEEVGR", "note": "[G24A]", "abundance fitness": "-0.495 ± 0.034"},
      {"variant": "RRRVRAILPYTKVPDTDEISFLKMDMFIVHNELEDGWMWVTNLRTDEQGLIVEDLVEEVGR", "note": "[G24M]", "abundance fitness": "-0.59 ± 0.078"},
      {"variant": "RRRVRAILPYTKVPDTDEISFLKLDMFIVHNELEDGWMWVTNLRTDEQGLIVEDLVEEVGR", "note": "[G24L]", "abundance fitness": "-0.885 ± 0.054"},
      {"variant": "RRRVRAILPYTKVPDTDEISFLKKDMFIVHNELEDGWMWVTNLRTDEQGLIVEDLVEEVGR", "note": "[G24K]", "abundance fitness": "-0.981 ± 0.16"},
      {"variant": "RRRVRAILPYTKVPDTDEISFLKQDMFIVHNELEDGWMWVTNLRTDEQGLIVEDLVEEVGR", "note": "[G24Q]", "abundance fitness": "-0.628 ± 0.11"},
      {"variant": "RRRVRAILPYTKVPDTDEISFLKHDMFIVHNELEDGWMWVTNLRTDEQGLIVEDLVEEVGR", "note": "[G24H]", "abundance fitness": "-0.201 ± 0.033"},
      {"variant": "RRRVRAILPYTKVPDTDEISFLKCDMFIVHNELEDGWMWVTNLRTDEQGLIVEDLVEEVGR", "note": "[G24C]", "abundance fitness": "-0.733 ± 0.036"},
      {"variant": "RRRVRAILPYTKVPDTDEISFLKYDMFIVHNELEDGWMWVTNLRTDEQGLIVEDLVEEVGR", "note": "[G24Y]", "abundance fitness": "-0.297 ± 0.033"},
      {"variant": "RRRVRAILPYTKVPDTDEISFLKWDMFIVHNELEDGWMWVTNLRTDEQGLIVEDLVEEVGR", "note": "[G24W]", "abundance fitness": "-0.545 ± 0.057"},
      {"variant": "RRRVRAILPYTKVPDTDEISFLKGIMFIVHNELEDGWMWVTNLRTDEQGLIVEDLVEEVGR", "note": "[D25I]", "abundance fitness": "-0.946 ± 0.059"},
      {"variant": "RRRVRAILPYTKVPDTDEISFLKGCMFIVHNELEDGWMWVTNLRTDEQGLIVEDLVEEVGR", "note": "[D25C]", "abundance fitness": "-0.864 ± 0.047"},
      {"variant": "RRRVRAILPYTKVPDTDEISFLKGHMFIVHNELEDGWMWVTNLRTDEQGLIVEDLVEEVGR", "note": "[D25H]", "abundance fitness": "-0.895 ± 0.059"},
      {"variant": "RRRVRAILPYTKVPDTDEISFLKGFMFIVHNELEDGWMWVTNLRTDEQGLIVEDLVEEVGR", "note": "[D25F]", "abundance fitness": "-0.822 ± 0.047"},
      {"variant": "RRRVRAILPYTKVPDTDEISFLKGEMFIVHNELEDGWMWVTNLRTDEQGLIVEDLVEEVGR", "note": "[D25E]", "abundance fitness": "-0.712 ± 0.094"},
      {"variant": "RRRVRAILPYTKVPDTDEISFLKGAMFIVHNELEDGWMWVTNLRTDEQGLIVEDLVEEVGR", "note": "[D25A]", "abundance fitness": "-0.949 ± 0.066"},
      {"variant": "RRRVRAILPYTKVPDTDEISFYKGDMFIVHNELEDGWMWVTNLRTDEQGLIVEDLVEEVGR", "note": "[L22Y]", "abundance fitness": "-0.102 ± 0.035"},
      {"variant": "RRRVRAILPYTKVPDTDEISFWKGDMFIVHNELEDGWMWVTNLRTDEQGLIVEDLVEEVGR", "note": "[L22W]", "abundance fitness": "-0.102 ± 0.058"},
      {"variant": "RRRVRAILPYTKVPDTDEISFLEGDMFIVHNELEDGWMWVTNLRTDEQGLIVEDLVEEVGR", "note": "[K23E]", "abundance fitness": "0.006 ± 0.041"},
      {"variant": "RRRVRAILPYTKVPDTDEISFLPGDMFIVHNELEDGWMWVTNLRTDEQGLIVEDLVEEVGR", "note": "[K23P]", "abundance fitness": "-0.048 ± 0.034"},
      {"variant": "RRRVRAILPYTKVPDTDEISFLWGDMFIVHNELEDGWMWVTNLRTDEQGLIVEDLVEEVGR", "note": "[K23W]", "abundance fitness": "-0.482 ± 0.037"},
      {"variant": "RRRVRAILPYTKVPDTDEISFLLGDMFIVHNELEDGWMWVTNLRTDEQGLIVEDLVEEVGR", "note": "[K23L]", "abundance fitness": "-0.232 ± 0.027"},
      {"variant": "RRRVRAILPYTKVPDTDEISFLGGDMFIVHNELEDGWMWVTNLRTDEQGLIVEDLVEEVGR", "note": "[K23G]", "abundance fitness": "-0.23 ± 0.025"},
      {"variant": "RRRVRAILPYTKVPDTDEISFLIGDMFIVHNELEDGWMWVTNLRTDEQGLIVEDLVEEVGR", "note": "[K23I]", "abundance fitness": "-0.148 ± 0.021"},
      {"variant": "RRRVRAILPYTKVPDTDEISFLHGDMFIVHNELEDGWMWVTNLRTDEQGLIVEDLVEEVGR", "note": "[K23H]", "abundance fitness": "-0.313 ± 0.031"},
      {"variant": "RRRVRAILPYTKVPDTDEISFLMGDMFIVHNELEDGWMWVTNLRTDEQGLIVEDLVEEVGR", "note": "[K23M]", "abundance fitness": "-0.149 ± 0.033"},
      {"variant": "RRRVRAILPYTKVPDTDEISFLQGDMFIVHNELEDGWMWVTNLRTDEQGLIVEDLVEEVGR", "note": "[K23Q]", "abundance fitness": "-0.061 ± 0.043"},
      {"variant": "RRRVRAILPYTKVPDTDEISFLNGDMFIVHNELEDGWMWVTNLRTDEQGLIVEDLVEEVGR", "note": "[K23N]", "abundance fitness": "-0.246 ± 0.023"},
      {"variant": "RRRVRAILPYTKVPDTDEISFLYGDMFIVHNELEDGWMWVTNLRTDEQGLIVEDLVEEVGR", "note": "[K23Y]", "abundance fitness": "-0.269 ± 0.023"},
      {"variant": "RRRVRAILPYTKVPDTDEISFLAGDMFIVHNELEDGWMWVTNLRTDEQGLIVEDLVEEVGR", "note": "[K23A]", "abundance fitness": "-0.038 ± 0.031"},
      {"variant": "RRRVRAILPYTKVPDTDEISFLCGDMFIVHNELEDGWMWVTNLRTDEQGLIVEDLVEEVGR", "note": "[K23C]", "abundance fitness": "-0.16 ± 0.023"},
      {"variant": "RRRVRAILPYTKVPDTDEISFLRGDMFIVHNELEDGWMWVTNLRTDEQGLIVEDLVEEVGR", "note": "[K23R]", "abundance fitness": "-0.094 ± 0.022"},
      {"variant": "RRRVRAILPYTKVPDTDEISFLVGDMFIVHNELEDGWMWVTNLRTDEQGLIVEDLVEEVGR", "note": "[K23V]", "abundance fitness": "-0.13 ± 0.028"},
      {"variant": "RRRVRAILPYTKVPDTDEISFLSGDMFIVHNELEDGWMWVTNLRTDEQGLIVEDLVEEVGR", "note": "[K23S]", "abundance fitness": "-0.102 ± 0.02"},
      {"variant": "RRRVRAILPYTKVPDTDEISFLTGDMFIVHNELEDGWMWVTNLRTDEQGLIVEDLVEEVGR", "note": "[K23T]", "abundance fitness": "-0.058 ± 0.024"}
    ]}
  ]
}
